± gives the standard deviation of the averaged measurements.
system: ATP; experiment: switch fluorescence ratio, 500 uM ATP over buffer (Cy3 cluster intensity, sum of 5 cycles each) (fold (ratio)); higher = stronger signal-on switching upon ATP binding; sequences stand for … in TCGTCGGCAGCGTCAGATGTGTATAAGAGACAGTTTTTTTTTTTTTTTTTTTTTTTTT…TC; settings: aptamer strand: ATP DNA aptamer (quencher-CACCTGGGGGAGTATTGCGGAGGAAGG + anchor), 100 nM annealed; ATP concentration: 500 uM
Outline: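 Clusters carrying Cy3-labelled switching strands on a modified Illumina MiSeq flow-cell were annealed to 100 nM quencher-labelled ATP aptamer and imaged in selection buffer. They were imaged again after 15 min with 500 uM ATP at 22 °C, over five buffer/ATP cycles with NaOH stripping and re-annealing in between. For each cluster, the fluorescence ratio is the summed Cy3 intensity of the target cycles divided by that of the buffer cycles, averaged per switch-domain sequence. Clusters outside 100-1000 RFU were left out.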
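Also: ATP exposure 15 min at 22 °C before imaging.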

Sequence | switch fluorescence ratio
GGACGGGGGG | 1.01 ± 0.056
AAATCGGAAT | 1.25 ± 0.27
TACCTAGGGG | 1.06 ± 0.039
TAATACTTTT | 1.07 ± 0.098
ATGAGTATTT | 0.979 ± 0.046
ATGTAATCTA | 0.961 ± 0.036
GGGTGGAGGA | 1.008 ± 0.0038
CATGGGGTTG | 0.978 ± 0.02
TGGACGAATA | 1.39 ± 0.29
GGAGACCTTT | 1.03 ± 0.041
TACAACTCTC | 0.963 ± 0.077
ATTAAAAAAA | 1.11 ± 0.18
TGAAGACTGA | 1 ± 0.012
AATAGGTGGG | 0.951 ± 0.016
TTAATTGAGT | 1.012 ± 0.0018
CTTGTGAGGA | 1 ± 0.036
CTGGGGAGGG | 1 ± 0.048
CTCTGGGCGG | 0.988 ± 0.039
CGATAGAAGT | 1.01 ± 0.016
AAACGCAACC | 1.57 ± 0.089
AGGCGGGGAG | 1.02 ± 0.026
GGGATATGGG | 0.995 ± 0.045
AAGTTATGGC | 0.9598 ± 0.0046
GGTACGTTGG | 1.02 ± 0.0078
TGAGATCGCG | 1.004 ± 0.0018
GTTTTGGGAC | 0.993 ± 0.027

Sequence | switch fluorescence ratio
TGGGGGCAGT | 1.12 ± 0.066
CAGGCAGTAA | 1.18 ± 0.073
GAGGGTTAAG | 1.02 ± 0.029
AAGGGTCAGC | 0.9917 ± 0.0081
ATCGGTGTTG | 1.02 ± 0.035
ATTATCGGGA | 1.02 ± 0.0017
TAAAGGAAGT | 0.983 ± 0.04
GCGGACACGC | 1.02 ± 0.014
GGATATAATG | 0.985 ± 0.019
AAGACTTTTT | 1.025 ± 0.0076
CAGTACTGGT | 0.99384 ± 0.00024
TTGTTGCGTT | 0.986 ± 0.025
GTGATCTAGG | 1.04 ± 0.033
TAGTCGGGGA | 1.03 ± 0.059
TGTGAAACCT | 1.95 ± 1.2
GCGAAGGGGG | 1.03 ± 0.067
GAAACAGTGT | 0.9732 ± 0.0046
ACATTTTAAG | 1 ± 0.026
TATTTCTCGT | 1.01 ± 0.056
GATTGCCGCG | 1 ± 0.047
TCACAGCTGG | 1.04 ± 0.016
GTTTGAAGGT | 1.01 ± 0.011
TGTTAGAACG | 1.02 ± 0.015
GGTAGTTGTG | 0.982 ± 0.013
AGTTGTGGGC | 0.968 ± 0.018
TGAGTACAGC | 1.03 ± 0.092

Sequence | switch fluorescence ratio
GGGGCTGGAG | 1.03 ± 0.063
TTAAAAAAAA | 1.16 ± 0.35
TTTCTTTTTT | 1 ± 0.024
GGGAGAAAAG | 0.984 ± 0.014
AGTTGGCGGC | 1.02 ± 0.039
TGGCCGTGGC | 1.03 ± 0.05
TAAATTGATG | 1.036 ± 0.0049
AAACGGATGG | 0.968 ± 0.016
TATTCCTTGG | 0.966 ± 0.012
GCGAAGGCTT | 1.017 ± 0.0095
GACTGGGGGT | 0.998 ± 0.033
AAAATTGCAT | 0.993 ± 0.021
TTTTTCCAT | 1 ± 0.02
TGTCGGCGGT | 1.05 ± 0.065
CGCCCTTGGG | 0.992 ± 0.024
AGACTTCCGG | 0.969 ± 0.048
GGGTTAGCGG | 1.01 ± 0.027
TTTAACGTAC | 1.83 ± 0.15
ATTTGGAGTC | 1 ± 0.018
AAGAGGCCCC | 0.9991 ± 0.0067
AAGTTTCTG | 0.9892 ± 0.0025
GGGGGCCTGT | 1.01 ± 0.035
TTTTTAACTC | 1.03 ± 0.021
AGGGGAGCGT | 1.015 ± 0.0064

— the supplement of paper PMC10126150
